# Assay results taken from patent publication US20250002601A1 (INNATE PHARMA, published 2025).
# T1: HuCD122-His (human, UniProt P14784 27-239)
# T1 construct: Captured on an anti-His CM5 chip; also called interleukin 2 receptor beta; IL2RP
# T1 sequence (looked up): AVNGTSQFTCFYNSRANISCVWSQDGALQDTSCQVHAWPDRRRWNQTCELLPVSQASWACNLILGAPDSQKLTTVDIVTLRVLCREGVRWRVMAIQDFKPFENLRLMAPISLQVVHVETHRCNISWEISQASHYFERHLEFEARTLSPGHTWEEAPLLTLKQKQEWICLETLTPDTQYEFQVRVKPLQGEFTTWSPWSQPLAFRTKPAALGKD
# Molecular target: IL-2 receptor on cells of human PBMC (NK cells, CD4 T cells, CD8 T cells, Tregs)
# Assay: cell-based or functional assay
row,Binder,% of pSTAT5+ cells among NK cells
1,CD20-4-T5-NKCE4-v3 (bispecific antibody) light: not shown heavy: not shown DIQMTQSPSSLSASVGDRVTITCRASQDISNYLNWYQQKPGKAPKLLIYYTSRLHSGVPSRFSGSGSGTDFTFTISSLQPEDIATYFCQQGNTRPWTFGGGTKVEIKASTKGPSVFPLAPSSKSTSGGTAALGCLVKDYFPEPVTVSWNSGALTSGVHTFPAVLQSSGLYSLSSVVTVPSSSLGTQTYICNVNHKPSNTKVDKRVEPKSCDKTHSGSSSSGSSSSGSSSSTKKTQLQLEHLLLDLQMILNGINNYKNPKLTAMLAKKFYMPKKATELKHLQCLEEELKPLEEVLNLAQSKNFHLRPRDLISNINVIVLELKGSETTFMCEYADETATIVEFLNRWITFCQSIISTLT,~1 log
2,CD20-3-T5-NKCE4-v3 (bispecific antibody) light: not shown heavy: not shown DIQMTQSPSSLSASVGDRVTITCRASQDISNYLNWYQQKPGKAPKLLIYYTSRLHSGVPSRFSGSGSGTDFTFTISSLQPEDIATYFCQQGNTRPWTFGGGTKVEIKASTKGPSVFPLAPSSKSTSGGTAALGCLVKDYFPEPVTVSWNSGALTSGVHTFPAVLQSSGLYSLSSVVTVPSSSLGTQTYICNVNHKPSNTKVDKRVEPKSCDKTHSGSSSSGSSSSGSSSSTKKTQLQLEHLLLDLQMILNGINNYKNPKLTAMLAKKFYMPKKATELKHLQCLEEELKPLEEVLNLAQSKNFHLRPRDLISNINVIVLELKGSETTFMCEYADETATIVEFLNRWITFCQSIISTLT,~1 log

# Next, values leading:
row,% of pSTAT5+ cells among NK cells,Binder
1,~1 log,CD20-1-T5-NKCE4-v3 (bispecific antibody) light: not shown heavy: not shown DIQMTQSPSSLSASVGDRVTITCRASQDISNYLNWYQQKPGKAPKLLIYYTSRLHSGVPSRFSGSGSGTDFTFTISSLQPEDIATYFCQQGNTRPWTFGGGTKVEIKASTKGPSVFPLAPSSKSTSGGTAALGCLVKDYFPEPVTVSWNSGALTSGVHTFPAVLQSSGLYSLSSVVTVPSSSLGTQTYICNVNHKPSNTKVDKRVEPKSCDKTHSGSSSSGSSSSGSSSSTKKTQLQLEHLLLDLQMILNGINNYKNPKLTAMLAKKFYMPKKATELKHLQCLEEELKPLEEVLNLAQSKNFHLRPRDLISNINVIVLELKGSETTFMCEYADETATIVEFLNRWITFCQSIISTLT
2,~1 log,CD20-2-T5-NKCE4-v3 (bispecific antibody) light: not shown heavy: not shown DIQMTQSPSSLSASVGDRVTITCRASQDISNYLNWYQQKPGKAPKLLIYYTSRLHSGVPSRFSGSGSGTDFTFTISSLQPEDIATYFCQQGNTRPWTFGGGTKVEIKASTKGPSVFPLAPSSKSTSGGTAALGCLVKDYFPEPVTVSWNSGALTSGVHTFPAVLQSSGLYSLSSVVTVPSSSLGTQTYICNVNHKPSNTKVDKRVEPKSCDKTHSGSSSSGSSSSGSSSSTKKTQLQLEHLLLDLQMILNGINNYKNPKLTAMLAKKFYMPKKATELKHLQCLEEELKPLEEVLNLAQSKNFHLRPRDLISNINVIVLELKGSETTFMCEYADETATIVEFLNRWITFCQSIISTLT

# Molecular target: T1, HuCD122-His
# Assay: SPR (Biacore), HuCD122-His captured on anti-His CM5 chip, analyte 31.25 nM to 1 µM, steady-state fit
# Procedure: Briefly, a biacore instrument was used with a CM5 chip comprising an immobilized anti-His antibody. Ligand HuCD122-His was injected at a dilution of […] to be captured on the chip. Proteins CD20-2-T5A-NKCE4-v2, CD20-2-T6AB3-NKCE4-v2A, CD20-2-T13A-NKCE4-v2A was then injected during 120 s with a flow of 10 μL/min, at a concentrations range from 31.25 nM to 1 μM. The interaction between these proteins and HuCD122-His was studied with a dissociation time of 600 s. The chip was then regenerated with NaOH 10 mM at a flow of 40 μL/min during 10 sec.
# Date has been analysed under the steady-state model, that seemed to be the most accurate regarding sensograms appearance.
row,Kd,Binder
1,2840 nM,"CD20-2-T6AB3-NKCE4-v2A (bispecific antibody, human IgG1, kappa) chain 1: not shown chain 2: EVQLVESGGGLVQPDRSLRLSCAASGFTFHDYAMHWVRQAPGKGLEWVSTISWNSGTIGYADSVKGRFTISRDNAKNSLYLQMNSLRAEDTALYYCAKDIQYGNYYYGMDVWGQGTTVTVSSASTKGPSVFPLAPSSKSTSGGTAALGCLVKDYFPEPVTVSWNSGALTSGVHTFPAVLQSSGLYSLSSVVTVPSSSLGTQTYICNVNHKPSNTKVDKRVEPKSCDKTHTCPPCPAPEAEGAPSVFLFPPKPKDTLMISRTPEVTCVVVDVSHEDPEVKFNWYVDGVEVHNAKTKPREEQYNSTYRVVSVLTVLHQDWLNGKEYKCKVSNKALPSSIEKTISKAKGQPREPQVYTLPPSREEMTKNQVSLTCLVKGFYPSDIAVEWESNGQPENNYKTTPPVLDSDGSFFLYSKLTVDKSRWQQGNVFSCSVMHEALHNHYTQKSLSLSPGSTGSQVQLVQSGAEVKKPGSSVKVSCKASGYTFSDYVINWVRQAPGQGLEWMGEIYPGSGTNYYNEKFKAKATITADKSTSTAYMELSSLRSEDTAVYYCARRGRYGLYAMDYWGQGTTVTVSSRTVAAPSVFIFPPSDEQLKSGTASVVCLLNNFYPREAKVQWKVDNALQSGNSQESVTEQDSKDSTYSLSSTLTLSKADYEKHKVYACEVTHQGLSSPVTKSFNRGEC chain 3: DIQMTQSPSSLSASVGDRVTITCRASQDISNYLNWYQQKPGKAPKLLIYYTSRLHSGVPSRFSGSGSGTDFTFTISSLQPEDIATYFCQQGNTRPWTFGGGTKVEIKASTKGPSVFPLAPSSKSTSGGTAALGCLVKDYFPEPVTVSWNSGALTSGVHTFPAVLQSSGLYSLSSVVTVPSSSLGTQTYICNVNHKPSNTKVDKRVEPKSCDKTHSGSSSSGSSSSGSSSSTKKTQLQLEHLLLDLQMILNGINNYKNPKLTAMLTKKFYMPKKATELKHLQCLEEELKPLEEVLNLAQSKNFHLRPRDLISNINVIVLELKGSETTFMCEYADETATIVEFLNRWITFAQSIISTLT"
2,1810 nM,"CD20-2-T5A-NKCE4-v2 (bispecific antibody, human IgG1, kappa) chain 1: not shown chain 2: not shown chain 3: DIQMTQSPSSLSASVGDRVTITCRASQDISNYLNWYQQKPGKAPKLLIYYTSRLHSGVPSRFSGSGSGTDFTFTISSLQPEDIATYFCQQGNTRPWTFGGGTKVEIKASTKGPSVFPLAPSSKSTSGGTAALGCLVKDYFPEPVTVSWNSGALTSGVHTFPAVLQSSGLYSLSSVVTVPSSSLGTQTYICNVNHKPSNTKVDKRVEPKSCDKTHSGSSSSGSSSSGSSSSTKKTQLQLEHLLLDLQMILNGINNYKNPKLTAMLAKKFYMPKKATELKHLQCLEEELKPLEEVLNLAQSKNFHLRPRDLISNINVIVLELKGSETTFMCEYADETATIVEFLNRWITFCQSIISTLT"
